From US20140087995A1 (published 2014) come the findings set out here.

The target of assay [1] is T1, human calcitonin receptor (human, UniProt P30988 25-474).
T1 construct: whole, on cells; Membranes of BHK cells stably transfected with the human calcitonin receptor (Assay VII); also called hCTR; hCT
T1 sequence (looked up): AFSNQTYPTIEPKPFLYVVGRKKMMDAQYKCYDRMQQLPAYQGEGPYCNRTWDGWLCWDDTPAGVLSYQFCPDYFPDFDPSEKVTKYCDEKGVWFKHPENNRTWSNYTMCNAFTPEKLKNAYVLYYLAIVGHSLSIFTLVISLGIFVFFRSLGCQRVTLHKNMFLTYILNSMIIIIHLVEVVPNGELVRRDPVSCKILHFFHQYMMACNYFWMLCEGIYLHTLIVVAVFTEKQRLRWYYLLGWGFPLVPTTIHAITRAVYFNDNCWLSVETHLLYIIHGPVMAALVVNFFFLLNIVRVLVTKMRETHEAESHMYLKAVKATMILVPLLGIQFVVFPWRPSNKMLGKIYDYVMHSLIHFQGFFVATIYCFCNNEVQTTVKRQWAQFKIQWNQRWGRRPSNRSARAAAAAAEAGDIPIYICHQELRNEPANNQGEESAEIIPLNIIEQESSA
Kind of assay: SPA competition against 125I-calcitonin, membranes of BHK cells with human calcitonin receptor (Assay VII). How it is done:
Membranes were prepared in the following way; the cells were rinsed with PBS and incubated with Versene for approximately 5 min before harvesting. The cells were flushed with PBS and the cell-suspension was centrifuged for 5 min at 1000 rpm. Cells were homogenized (Ultrathurrax) in a buffer containing 20 mM Na-HEPES and 10 mM EDTA (pH 7.4) and centrifuged at 20.000 rpm for 15 min. The resulting pellet was resuspended, homogenized and centrifuged (20.000 rpm, 15 min) in a buffer containing 20 mM Na-HEPES and 0.1 mM EDTA (pH 7.4, buffer 2). The resulting pellet was resuspended in buffer 2 and protein concentration was measured (BCA protein Assay, Pierce). The homogenate was kept cold during the whole procedure. The membranes were kept at −80° C. until use. Assay was performed in a 384 well Optiplate (PerkinElmer) in a total volume of 40 ul. Membranes were mixed with SPA beads. Final concentration of membranes 35 ng/μL final and Final concentration of SPA beads was 0.05 mg/well. Test-compounds were dissolved in DMSO and further diluted in assay buffer (50 mM Hepes, pH 7.4, 1 mM CaCl2, 5 mM MgCl₂, 0.1% OA and 0.02% Tween20). […] The final mixture was incubated for 120 min with shaking at 400 rpm at 25° C. prior to centrifugation (1500 rpm, 10 min). Samples were analyzed on TopCounter™ (Packard). The […] was calculated using (one site binding competition analysis) GraphPad Prism5 as a measure of receptor affinity.

The target of assay [2] is T1, human calcitonin receptor. Description: ratio of IC50 at hCTR over IC50 at hAmylin-R (SPA competition assays). How it is done: The resulting pellet was resuspended, homogenized and centrifuged (20.000 rpm, 15 min) in a buffer containing 20 mM Na-HEPES and 0.1 mM EDTA (pH 7.4, buffer 2). The resulting pellet was resuspended in buffer 2 and protein concentration was measured (BCA protein Assay, Pierce). The homogenate was kept cold during the whole procedure. The membranes were kept at −80° C. until use. The assay was performed in a 384 well Optiplate (PerkinElmer) in a total volume of 40 ul. Membranes were mixed with SPA beads. Final concentration of membranes 35 ng/μL final and SPA beads was 0.05 mg/well. Test-compounds were dissolved in DMSO and further diluted in assay buffer (50 mM Hepes, pH 7.4, 1 mM CaCl2, 5 mM MgCl₂, 0.1% OA and 0.02% Tween20). […] The final mixture was incubated with shaking at 400 rpm for 120 min at 25° C. prior to centrifugation (1500 rpm, 10 min). Samples were analyzed on TopCounter™ (Packard). The IC₅₀ was calculated using (one site binding competition analysis) GraphPad Prism5 as a measure of receptor affinity.
Membranes were prepared in the following way; the cells were rinsed with PBS and incubated with Versene for approximately 5 min before harvesting. The cells were flushed with PBS and the cell-suspension was centrifuged for 5 min at 1000 rpm. Cells were homogenized (Ultrathurrax) in a buffer containing 20 mM Na-HEPES and 10 mM EDTA (pH 7.4) and centrifuged at 20.000 rpm for 15 min. The resulting pellet was resuspended, homogenized and centrifuged (20.000 rpm, 15 min) in a buffer containing 20 mM Na-HEPES and 0.1 mM EDTA (pH 7.4, buffer 2). The resulting pellet was resuspended in buffer 2 and protein concentration was measured (BCA protein Assay, Pierce). The homogenate was kept cold during the whole procedure. The membranes were kept at −80° C. until use. Assay was performed in a 384 well Optiplate (PerkinElmer) in a total volume of 40 ul. Membranes were mixed with SPA beads.

Numbered stars: 1 amine (or outer) side, 2 acyl side, 3 side chain; on linkers, the order of the positions; unused ones are H or OH. Bridge positions count the residues as written; N and C are the ends. Square brackets hold non-standard residues; d marks the D form. Side chains are listed from the residue outwards. Ends that are not written are not given here. * marks the point of attachment. C20 diacid = O=C(O)CCCCCCCCCCCCCCCCCCC(=O)*; γGlu = O=C(O)[C@H](CCC(=O)[*:2])N[*:1]

B1: N^ε1-[(4S)-4-carboxy-4-[[(4S)-4-carboxy-4-(19-carboxynonadecanoylamino)butanoyl]amino]butanoyl]-[D-Asp14,Arg17,Pro21,Pro27,Arg35]-h-amylin (peptide)
peptide: K([γGlu-γGlu-C20 diacid])CNTATCATQRLA[dD]FLRHSSPNFGAIPSSTNVGSRTY-NH2
modifications: disulfide 2-7; N-terminus assumed
SMILES: CC[C@H](C)[C@H](NC(=O)[C@H](C)NC(=O)CNC(=O)[C@H](Cc1ccccc1)NC(=O)[C@H](CC(N)=O)NC(=O)[C@@H]1CCCN1C(=O)[C@H](CO)NC(=O)[C@H](CO)NC(=O)[C@H](Cc1c[nH]cn1)NC(=O)[C@H](CCCNC(=N)N)NC(=O)[C@H](CC(C)C)NC(=O)[C@H](Cc1ccccc1)NC(=O)[C@@H](CC(=O)O)NC(=O)[C@H](C)NC(=O)[C@H](CC(C)C)NC(=O)[C@H](CCCNC(=N)N)NC(=O)[C@H](CCC(N)=O)NC(=O)[C@@H](NC(=O)[C@H](C)NC(=O)[C@@H]1CSSC[C@H](NC(=O)[C@@H](N)CCCCNC(=O)CC[C@H](NC(=O)CC[C@H](NC(=O)CCCCCCCCCCCCCCCCCCC(=O)O)C(=O)O)C(=O)O)C(=O)N[C@@H](CC(N)=O)C(=O)N[C@@H]([C@@H](C)O)C(=O)N[C@@H](C)C(=O)N[C@@H]([C@@H](C)O)C(=O)N1)[C@@H](C)O)C(=O)N1CCC[C@H]1C(=O)N[C@@H](CO)C(=O)N[C@@H](CO)C(=O)N[C@H](C(=O)N[C@@H](CC(N)=O)C(=O)N[C@H](C(=O)NCC(=O)N[C@@H](CO)C(=O)N[C@@H](CCCNC(=N)N)C(=O)N[C@H](C(=O)N[C@@H](Cc1ccc(O)cc1)C(N)=O)[C@@H](C)O)C(C)C)[C@@H](C)O
notes: Residue 14 is D-aspartic acid (printed 14d)
B1: the IC50 (in general, the concentration needed to halve the response being measured) in assay [1] stood at 112 nM.

B2: N^-1-[(4S)-4-carboxy-4-(19-carboxynonadecanoylamino)butanoyl]-Gly[Arg1,His14,Arg17,Pro21,Pro27,His34]-h-amylin (peptide)
peptide: {C20 diacid-γGlu}-GRCNTATCATQRLAHFLRHSSPNFGAIPSSTNVGHNTY-NH2
modifications: disulfide 3-8
SMILES: CC[C@H](C)[C@H](NC(=O)[C@H](C)NC(=O)CNC(=O)[C@H](Cc1ccccc1)NC(=O)[C@H](CC(N)=O)NC(=O)[C@@H]1CCCN1C(=O)[C@H](CO)NC(=O)[C@H](CO)NC(=O)[C@H](Cc1c[nH]cn1)NC(=O)[C@H](CCCNC(=N)N)NC(=O)[C@H](CC(C)C)NC(=O)[C@H](Cc1ccccc1)NC(=O)[C@H](Cc1c[nH]cn1)NC(=O)[C@H](C)NC(=O)[C@H](CC(C)C)NC(=O)[C@H](CCCNC(=N)N)NC(=O)[C@H](CCC(N)=O)NC(=O)[C@@H](NC(=O)[C@H](C)NC(=O)[C@@H]1CSSC[C@H](NC(=O)[C@H](CCCNC(=N)N)NC(=O)CNC(=O)CC[C@H](NC(=O)CCCCCCCCCCCCCCCCCCC(=O)O)C(=O)O)C(=O)N[C@@H](CC(N)=O)C(=O)N[C@@H]([C@@H](C)O)C(=O)N[C@@H](C)C(=O)N[C@@H]([C@@H](C)O)C(=O)N1)[C@@H](C)O)C(=O)N1CCC[C@H]1C(=O)N[C@@H](CO)C(=O)N[C@@H](CO)C(=O)N[C@H](C(=O)N[C@@H](CC(N)=O)C(=O)N[C@H](C(=O)NCC(=O)N[C@@H](Cc1c[nH]cn1)C(=O)N[C@@H](CC(N)=O)C(=O)N[C@H](C(=O)N[C@@H](Cc1ccc(O)cc1)C(N)=O)[C@@H](C)O)C(C)C)[C@@H](C)O
notes: also called compound 100
Regarding B2, in assay [2], the “Ratio hCT/hAmylin binding” value is 65.3. Besides, the IC50 in assay [1] came to 66.3 nM.

B3: N^-1-[(4S)-4-carboxy-4-(19-carboxynonadecanoylamino)butanoyl]-Gly[Arg1,Ala14,Arg17,Pro21,Pro27,His34]-h-amylin (peptide)
peptide: {C20 diacid-γGlu}-GRCNTATCATQRLAAFLRHSSPNFGAIPSSTNVGHNTY-NH2
modifications: disulfide 3-8
SMILES: CC[C@H](C)[C@H](NC(=O)[C@H](C)NC(=O)CNC(=O)[C@H](Cc1ccccc1)NC(=O)[C@H](CC(N)=O)NC(=O)[C@@H]1CCCN1C(=O)[C@H](CO)NC(=O)[C@H](CO)NC(=O)[C@H](Cc1c[nH]cn1)NC(=O)[C@H](CCCNC(=N)N)NC(=O)[C@H](CC(C)C)NC(=O)[C@H](Cc1ccccc1)NC(=O)[C@H](C)NC(=O)[C@H](C)NC(=O)[C@H](CC(C)C)NC(=O)[C@H](CCCNC(=N)N)NC(=O)[C@H](CCC(N)=O)NC(=O)[C@@H](NC(=O)[C@H](C)NC(=O)[C@@H]1CSSC[C@H](NC(=O)[C@H](CCCNC(=N)N)NC(=O)CNC(=O)CC[C@H](NC(=O)CCCCCCCCCCCCCCCCCCC(=O)O)C(=O)O)C(=O)N[C@@H](CC(N)=O)C(=O)N[C@@H]([C@@H](C)O)C(=O)N[C@@H](C)C(=O)N[C@@H]([C@@H](C)O)C(=O)N1)[C@@H](C)O)C(=O)N1CCC[C@H]1C(=O)N[C@@H](CO)C(=O)N[C@@H](CO)C(=O)N[C@H](C(=O)N[C@@H](CC(N)=O)C(=O)N[C@H](C(=O)NCC(=O)N[C@@H](Cc1c[nH]cn1)C(=O)N[C@@H](CC(N)=O)C(=O)N[C@H](C(=O)N[C@@H](Cc1ccc(O)cc1)C(N)=O)[C@@H](C)O)C(C)C)[C@@H](C)O
Turning to B3, the “Ratio hCT/hAmylin binding” value in assay [2] came to 68.6. Besides, the IC50 in assay [1] was 29.2 nM.

B4: N^-1-[(4S)-4-carboxy-4-(19-carboxynonadecanoylamino)butanoyl]-Gly[Arg1,His14,Arg17,Pro21,Pro27,Pro34]-h-amylin (peptide)
peptide: {C20 diacid-γGlu}-GRCNTATCATQRLAHFLRHSSPNFGAIPSSTNVGPNTY-NH2
modifications: disulfide 3-8
SMILES: CC[C@H](C)[C@H](NC(=O)[C@H](C)NC(=O)CNC(=O)[C@H](Cc1ccccc1)NC(=O)[C@H](CC(N)=O)NC(=O)[C@@H]1CCCN1C(=O)[C@H](CO)NC(=O)[C@H](CO)NC(=O)[C@H](Cc1c[nH]cn1)NC(=O)[C@H](CCCNC(=N)N)NC(=O)[C@H](CC(C)C)NC(=O)[C@H](Cc1ccccc1)NC(=O)[C@H](Cc1c[nH]cn1)NC(=O)[C@H](C)NC(=O)[C@H](CC(C)C)NC(=O)[C@H](CCCNC(=N)N)NC(=O)[C@H](CCC(N)=O)NC(=O)[C@@H](NC(=O)[C@H](C)NC(=O)[C@@H]1CSSC[C@H](NC(=O)[C@H](CCCNC(=N)N)NC(=O)CNC(=O)CC[C@H](NC(=O)CCCCCCCCCCCCCCCCCCC(=O)O)C(=O)O)C(=O)N[C@@H](CC(N)=O)C(=O)N[C@@H]([C@@H](C)O)C(=O)N[C@@H](C)C(=O)N[C@@H]([C@@H](C)O)C(=O)N1)[C@@H](C)O)C(=O)N1CCC[C@H]1C(=O)N[C@@H](CO)C(=O)N[C@@H](CO)C(=O)N[C@H](C(=O)N[C@@H](CC(N)=O)C(=O)N[C@H](C(=O)NCC(=O)N1CCC[C@H]1C(=O)N[C@@H](CC(N)=O)C(=O)N[C@H](C(=O)N[C@@H](Cc1ccc(O)cc1)C(N)=O)[C@@H](C)O)C(C)C)[C@@H](C)O
B4: the “Ratio hCT/hAmylin binding” value in assay [2] was 36.2. The IC50 in assay [1] is 7.87 nM.

For the molecule {C20 diacid-γGlu}-GRCNTATCATQRLAAFLRHSSPNFGAIPSSTNVGPNTY-NH2 (disulfide 3-8), the “Ratio hCT/hAmylin binding” value in assay [2] turned out to be 26.5. Besides, in assay [1], the IC50 was 3 nM.
